B1: INTS4 (parent)
chain: YSSGEFSSGRKWGDDAPKEEVDTG
B2: NET1 (parent)
chain: PTPAKRRSSALWSEMLDITMKESL
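Further: lentivirally expressed fusions sorted by FACS into six bins by GFP to DsRed ratio, PSI derived from sequencing read proportions per bin multiplied by bin number.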

Variants of: B1
Assay: protein stability index of a GFP-peptide fusion (GPS, HEK-293T) (PSI 1-6); higher = more stable
Conditions: c terminus: a fixed tail appended
With YSSGEFSSGRKWGDDAPKEKVDTG [E20K] the protein stability index was 1.91.
With YSSGEFSSGRKWGDDAPKELVDTG [E20L] the protein stability index was 1.89.
Variant YSSGEFSSGRKWGDDAPKEMVDTG [E20M] has a protein stability index of 2.31.
YSSGEFSSGRKWGDDAPKENVDTG [E20N] showed a protein stability index of 2.35.
In the case of YSSGEFSSGRKWGDDAPKEPVDTG [E20P], the protein stability index is reported as 2.42.
For YSSGEFSSGRKWGDDAPKEQVDTG [E20Q], the protein stability index was 2.6.
In the case of YSSGEFSSGRKWGDDAPKERVDTG [E20R], the protein stability index is reported as 2.28.
With YSSGEFSSGRKWGDDAPKESVDTG [E20S] the protein stability index was 1.91.
YSSGEFSSGRKWGDDAPKETVDTG [E20T] gave a protein stability index of 2.38.
Variant YSSGEFSSGRKWGDDAPKEVVDTG [E20V] has a protein stability index of 2.37.
In the case of YSSGEFSSGRKWGDDAPKEWVDTG [E20W], the protein stability index is reported as 1.97.
Variant YSSGEFSSGRKWGDDAPKEYVDTG [E20Y] has a protein stability index of 3.19.
For YSSGEFSSGRKWGDDAPKEECDTG [V21C], the protein stability index was 3.39.
For YSSGEFSSGRKWGDDAPKEEDDTG [V21D], the protein stability index was 2.92.
With YSSGEFSSGRKWGDDAPKEEEDTG [V21E] the protein stability index was 2.84.
For YSSGEFSSGRKWGDDAPKEEFDTG [V21F], the protein stability index was 2.58.
Work on YSSGEFSSGRKWGDDAPKEEGDTG [V21G] yielded a protein stability index of 2.94.
Variant YSSGEFSSGRKWGDDAPKEEHDTG [V21H] has a protein stability index of 2.74.
For YSSGEFSSGRKWGDDAPKEEIDTG [V21I], the protein stability index was 2.27.
YSSGEFSSGRKWGDDAPKEEKDTG [V21K] gave a protein stability index of 2.8.
With YSSGEFSSGRKWGDDAPKEELDTG [V21L] the protein stability index was 2.28.
With YSSGEFSSGRKWGDDAPKEEMDTG [V21M] the protein stability index was 2.78.
In the case of YSSGEFSSGRKWGDDAPKEENDTG [V21N], the protein stability index is reported as 2.81.
In the case of YSSGEFSSGRKWGDDAPKEEPDTG [V21P], the protein stability index is reported as 3.13.
With YSSGEFSSGRKWGDDAPKEEQDTG [V21Q] the protein stability index was 2.73.
With YSSGEFSSGRKWGDDAPKEERDTG [V21R] the protein stability index was 2.83.
Variant YSSGEFSSGRKWGDDAPKEESDTG [V21S] has a protein stability index of 2.54.
In the case of YSSGEFSSGRKWGDDAPKEETDTG [V21T], the protein stability index is reported as 3.31.
In the case of YSSGEFSSGRKWGDDAPKEEWDTG [V21W], the protein stability index is reported as 1.82.
Work on YSSGEFSSGRKWGDDAPKEEYDTG [V21Y] yielded a protein stability index of 2.74.
In the case of YSSGEFSSGRKWGDDAPKEEVATG [D22A], the protein stability index is reported as 2.06.
YSSGEFSSGRKWGDDAPKEEVCTG [D22C] showed a protein stability index of 2.67.
Variant YSSGEFSSGRKWGDDAPKEEVETG [D22E] has a protein stability index of 2.72.
YSSGEFSSGRKWGDDAPKEEVFTG [D22F] showed a protein stability index of 3.28.
Work on YSSGEFSSGRKWGDDAPKEEVGTG [D22G] yielded a protein stability index of 2.35.
In the case of YSSGEFSSGRKWGDDAPKEEVHTG [D22H], the protein stability index is reported as 2.48.
YSSGEFSSGRKWGDDAPKEEVITG [D22I] gave a protein stability index of 2.66.
YSSGEFSSGRKWGDDAPKEEVKTG [D22K] showed a protein stability index of 1.65.
YSSGEFSSGRKWGDDAPKEEVLTG [D22L] gave a protein stability index of 2.27.
Work on YSSGEFSSGRKWGDDAPKEEVMTG [D22M] yielded a protein stability index of 1.63.
With YSSGEFSSGRKWGDDAPKEEVNTG [D22N] the protein stability index was 2.74.
Work on YSSGEFSSGRKWGDDAPKEEVPTG [D22P] yielded a protein stability index of 2.38.
Variant YSSGEFSSGRKWGDDAPKEEVQTG [D22Q] has a protein stability index of 2.71.
In the case of YSSGEFSSGRKWGDDAPKEEVRTG [D22R], the protein stability index is reported as 2.73.
YSSGEFSSGRKWGDDAPKEEVSTG [D22S] showed a protein stability index of 2.17.
Work on YSSGEFSSGRKWGDDAPKEEVTTG [D22T] yielded a protein stability index of 2.34.
For YSSGEFSSGRKWGDDAPKEEVVTG [D22V], the protein stability index was 1.86.
In the case of YSSGEFSSGRKWGDDAPKEEVWTG [D22W], the protein stability index is reported as 1.64.
In the case of YSSGEFSSGRKWGDDAPKEEVYTG [D22Y], the protein stability index is reported as 2.02.
Work on YSSGEFSSGRKWGDDAPKEEVDAG [T23A] yielded a protein stability index of 2.35.
YSSGEFSSGRKWGDDAPKEEVDCG [T23C] showed a protein stability index of 2.95.
YSSGEFSSGRKWGDDAPKEEVDDG [T23D] gave a protein stability index of 2.96.
Work on YSSGEFSSGRKWGDDAPKEEVDEG [T23E] yielded a protein stability index of 2.8.
With YSSGEFSSGRKWGDDAPKEEVDFG [T23F] the protein stability index was 2.47.
In the case of YSSGEFSSGRKWGDDAPKEEVDGG [T23G], the protein stability index is reported as 2.81.
YSSGEFSSGRKWGDDAPKEEVDHG [T23H] gave a protein stability index of 2.35.
YSSGEFSSGRKWGDDAPKEEVDIG [T23I] showed a protein stability index of 2.3.
Variant YSSGEFSSGRKWGDDAPKEEVDKG [T23K] has a protein stability index of 2.46.
In the case of YSSGEFSSGRKWGDDAPKEEVDLG [T23L], the protein stability index is reported as 2.9.
Variant YSSGEFSSGRKWGDDAPKEEVDMG [T23M] has a protein stability index of 1.99.
For YSSGEFSSGRKWGDDAPKEEVDNG [T23N], the protein stability index was 2.35.
With YSSGEFSSGRKWGDDAPKEEVDPG [T23P] the protein stability index was 1.9.
With YSSGEFSSGRKWGDDAPKEEVDQG [T23Q] the protein stability index was 2.15.
In the case of YSSGEFSSGRKWGDDAPKEEVDRG [T23R], the protein stability index is reported as 2.96.
YSSGEFSSGRKWGDDAPKEEVDSG [T23S] gave a protein stability index of 2.67.
YSSGEFSSGRKWGDDAPKEEVDVG [T23V] gave a protein stability index of 2.39.
YSSGEFSSGRKWGDDAPKEEVDWG [T23W] gave a protein stability index of 2.05.
In the case of YSSGEFSSGRKWGDDAPKEEVDYG [T23Y], the protein stability index is reported as 2.36.
In the case of YSSGEFSSGRKWGDDAPKEEVDTA [G24A], the protein stability index is reported as 2.59.
Work on YSSGEFSSGRKWGDDAPKEEVDTC [G24C] yielded a protein stability index of 2.96.
With YSSGEFSSGRKWGDDAPKEEVDTD [G24D] the protein stability index was 2.16.
Variant YSSGEFSSGRKWGDDAPKEEVDTE [G24E] has a protein stability index of 2.74.
Work on YSSGEFSSGRKWGDDAPKEEVDTF [G24F] yielded a protein stability index of 2.63.
With YSSGEFSSGRKWGDDAPKEEVDTH [G24H] the protein stability index was 2.51.
For YSSGEFSSGRKWGDDAPKEEVDTI [G24I], the protein stability index was 2.25.
Work on YSSGEFSSGRKWGDDAPKEEVDTK [G24K] yielded a protein stability index of 3.9.
YSSGEFSSGRKWGDDAPKEEVDTL [G24L] gave a protein stability index of 2.76.
With YSSGEFSSGRKWGDDAPKEEVDTM [G24M] the protein stability index was 2.68.
YSSGEFSSGRKWGDDAPKEEVDTN [G24N] gave a protein stability index of 3.09.
Work on YSSGEFSSGRKWGDDAPKEEVDTP [G24P] yielded a protein stability index of 2.4.
In the case of YSSGEFSSGRKWGDDAPKEEVDTQ [G24Q], the protein stability index is reported as 2.58.
In the case of YSSGEFSSGRKWGDDAPKEEVDTR [G24R], the protein stability index is reported as 2.83.
With YSSGEFSSGRKWGDDAPKEEVDTS [G24S] the protein stability index was 2.65.
With YSSGEFSSGRKWGDDAPKEEVDTT [G24T] the protein stability index was 2.72.
With YSSGEFSSGRKWGDDAPKEEVDTV [G24V] the protein stability index was 2.72.
YSSGEFSSGRKWGDDAPKEEVDTY [G24Y] showed a protein stability index of 2.28.

Variants of: B2
Assay: as above
Conditions: c terminus: a fixed tail appended
Variant ATPAKRRSSALWSEMLDITMKESL [P1A] has a protein stability index of 2.56.
With CTPAKRRSSALWSEMLDITMKESL [P1C] the protein stability index was 1.75.
Work on DTPAKRRSSALWSEMLDITMKESL [P1D] yielded a protein stability index of 2.12.
Work on GTPAKRRSSALWSEMLDITMKESL [P1G] yielded a protein stability index of 2.28.
Work on HTPAKRRSSALWSEMLDITMKESL [P1H] yielded a protein stability index of 3.04.
ITPAKRRSSALWSEMLDITMKESL [P1I] showed a protein stability index of 2.07.
KTPAKRRSSALWSEMLDITMKESL [P1K] showed a protein stability index of 2.04.
Variant LTPAKRRSSALWSEMLDITMKESL [P1L] has a protein stability index of 2.25.
